# Assay results published in paper PMC10297700.
# B1: ACC1_TIM23 probe (RSC3 consensus oligonucleotide) (dsDNA)
# DNA 1: ACGCGCGCGCGGCCGGGCCA
# DNA 2: TGGCCCGGCCGCGCGCGCGT
# Target: Rsc3ΔIDR (Saccharomyces cerevisiae, UniProt Q06639 1-885, del197-303)
# Experiment: EMSA
binder,measurement,value
B1,binding result,binds
